The values that follow come from patent US20150104466A1 (WISCONSIN ALUMNI RESEARCH FOUNDATION, published 2015).

“And” between values parts separate entries of the source, which are not always exact repeats. Identical values can stand only once.

The target in one test is T1, β3 integrin (human, UniProt P05106 27-788).
T1 construct: also called β3 integrins
In words: His-tag pull-down on nickel beads from NHDF lysate, Western blot for β3 integrin. On the technique in general: In western blotting, separated proteins are transferred to a membrane and probed.

Another test addresses β1 integrin (human, UniProt P05556 21-798). In words: cell-based or functional assay.

Sequence of β1 integrin (P05556 21-798): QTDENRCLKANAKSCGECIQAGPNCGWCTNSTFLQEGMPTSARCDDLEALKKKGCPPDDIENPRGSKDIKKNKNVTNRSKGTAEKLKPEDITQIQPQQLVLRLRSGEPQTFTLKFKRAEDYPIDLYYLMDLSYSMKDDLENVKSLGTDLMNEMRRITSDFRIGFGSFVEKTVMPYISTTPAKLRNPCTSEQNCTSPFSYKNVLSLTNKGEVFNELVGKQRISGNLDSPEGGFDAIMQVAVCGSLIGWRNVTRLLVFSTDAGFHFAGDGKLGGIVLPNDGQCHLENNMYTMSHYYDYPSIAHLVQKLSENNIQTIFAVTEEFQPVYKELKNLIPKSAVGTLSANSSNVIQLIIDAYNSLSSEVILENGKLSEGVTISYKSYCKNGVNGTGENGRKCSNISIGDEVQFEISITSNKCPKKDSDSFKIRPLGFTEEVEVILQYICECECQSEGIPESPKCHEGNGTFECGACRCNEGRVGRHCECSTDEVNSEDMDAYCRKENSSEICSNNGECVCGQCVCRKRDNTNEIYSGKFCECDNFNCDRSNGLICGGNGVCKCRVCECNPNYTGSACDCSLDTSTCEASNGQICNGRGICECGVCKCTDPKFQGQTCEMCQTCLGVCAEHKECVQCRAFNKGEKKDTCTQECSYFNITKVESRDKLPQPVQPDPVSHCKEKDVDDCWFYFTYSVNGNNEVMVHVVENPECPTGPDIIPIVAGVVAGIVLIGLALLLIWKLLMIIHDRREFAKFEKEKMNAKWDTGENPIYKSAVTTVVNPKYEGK
T1 sequence (P05106 27-788 limits assumed): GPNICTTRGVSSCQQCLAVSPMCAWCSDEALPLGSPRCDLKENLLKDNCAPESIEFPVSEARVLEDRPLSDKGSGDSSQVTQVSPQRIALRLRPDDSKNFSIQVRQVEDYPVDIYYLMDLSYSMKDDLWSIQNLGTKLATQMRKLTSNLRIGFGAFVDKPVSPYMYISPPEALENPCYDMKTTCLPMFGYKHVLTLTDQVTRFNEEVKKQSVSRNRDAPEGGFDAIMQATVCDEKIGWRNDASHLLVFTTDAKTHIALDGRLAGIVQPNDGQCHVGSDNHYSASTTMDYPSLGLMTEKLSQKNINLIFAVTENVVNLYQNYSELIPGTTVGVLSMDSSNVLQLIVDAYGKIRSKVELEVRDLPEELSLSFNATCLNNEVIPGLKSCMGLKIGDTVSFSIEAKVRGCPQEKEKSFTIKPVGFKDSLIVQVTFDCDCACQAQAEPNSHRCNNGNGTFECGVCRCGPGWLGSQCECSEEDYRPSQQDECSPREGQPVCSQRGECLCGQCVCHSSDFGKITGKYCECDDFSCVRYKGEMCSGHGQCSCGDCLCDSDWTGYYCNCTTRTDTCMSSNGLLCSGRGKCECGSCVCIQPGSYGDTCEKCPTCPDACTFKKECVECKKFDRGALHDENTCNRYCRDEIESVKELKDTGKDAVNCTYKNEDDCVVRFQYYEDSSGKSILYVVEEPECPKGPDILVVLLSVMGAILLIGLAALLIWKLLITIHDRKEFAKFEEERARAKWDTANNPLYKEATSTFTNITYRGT

B1: HCMV AD169 glycoprotein B disintegrin-like domain (amino acids 57-146), His-tagged, expressed in E. coli (other)
chain: VTSSEAVSHRANETIYNTTLKYGDVVGVNTTKYPYRVCSMAQGTDLIRFERNIICTSMKPINEDLDEGIMVVYKRNIVAHTFKVRVYQKV
notes: range 57-146; also called gBDLD; gBDLD fragment; not shown: N-terminal His-Tag with thrombin cleavage site from vector pET-28a
As to B1, in the test with β3 integrin, the binding result was “no binding (tested: 20 µg gBDLD in 350 µL cell lysate)”. The “IC50 for HCMV neutralization (HCMV-GFP infectivity of NHDFs, flow cytometry)” value with β1 integrin was 20.5 µg/mL and 1.96 µM.
